Reference: the nanobody polyreactivity screen of Harvey et al. (2022)

Assay: yeast display, Sf9 membrane polyspecificity reagent, FACS + sequencing; frameworks hold sequencing errors
Summary of the method: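 Sorting gates, low and high (top ~1%), were placed on anti-HA fluorescence to track expression and on streptavidin fluorescence to track reagent binding. A clone's polyreactivity label is taken from the gate it came out of. The reagent was 10% biotinylated, detergent-solubilized Sf9 membrane, applied for 1 hour at 4 °C to galactose-induced yeast display cells.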

Sequence | polyreactivity (PSR sort gate)
QVQLVESGGGLVQAGGSLRLSCAASGSIFDHTNAMGSYRQAPGKERELVAAITSGSSTNYADSVKGRFTISRDNAKKTVDLQMNSLKPEDTAVYYCNADRFHSGIFDYWGQGTQVTVSS | low polyreactivity
QVQLVESGGGLVQAGGSLRLSCAASGSIFDINAMGWYRQAPGKERELVAAISTTSGRTYYADSVKGRFTISRDNAKNTVFLQMNSLKPEDTAVYYCNVSKYVSSYRRGLFNYWGQGTQVTVSS | low polyreactivity
QVQLVESGGGLVQAGGSLRLSCAASGSIFDINAMGWYRQAPGKERELVAVITDSGSTYYADSVKGRFTISRDNAKNTVYLQMNSLKPEDTAVYYCAAESSLLFFLMDYWGQATQVTVSS | low polyreactivity
QVQLVESGGGLVQAGGSLRLSCAASGSIFDINAMGWYRQAPGKERELVAVITDSGSTYYADSVKGRFTISRDNAKNTVYLQMNSLKPEDTAVYYCAAESSLLFFLMDYWGQGTQVTVSS | low polyreactivity
QVQLVESGGGLVQAGGSLRLSCAASGSIFDIYAMGWYRQAPGKERELVAAISWNGGDTTYADSVKGRFTISRDNAKNTVYLQMNSLKPEDTAVYYCAADLGYWVADYYWGQGTQVTVSS | high polyreactivity
QVQLVESGGGLVQAGGSLRLSCAASGSIFDIYAMGWYRQAPGKETELVAAISWNGGDTTYADSVKGRFTISRDNAKNTVYLQMNSLKPEDTAVYYCAADLGYWVADYYWGQGTQVTVSS | high polyreactivity
QVQLVESGGGLVQAGGSLRLSCAASGSIFDLNAMGWYRQAPGKERELVAAISKSGGSTYYADSVKGRFTISRDNAKNTVYLQMNSLKPEDTAVYYCATSGDRLVWGQGTQVTVSW | low polyreactivity
QVQLVESGGGLVQAGGSLRLSCAASGSIFDLNAMGWYRQAPGKERELVAAISSGGGTYYADSVKGRFTISRDNAKNTVYLQMNSLKPEDTAVYYCNRVTRWTYNYWGQGTQVTVSS | high polyreactivity
QVQLVESGGGLVQAGGSLRLSCAASGSIFDLYAMGWYRQAPGKERELVAGISYSGGSTYYADSVKGRFTISRDNAKNTVYLQMNSLKPEDTAVYYCAVDLGYRLGRFDYWGQGTQVTVSS | low polyreactivity
QVQLVESGGGLVQAGGSLRLSCAASGSIFDNYAMGWYRPAPGKERELVAVISSGGVSTSYADSVKGRFTISRDNAKNTVYLQMNSLKTEDTAVYYCAADGYYIGPYDYWGQGTQVNVSS | low polyreactivity
QVQLVESGGGLVQAGGSLRLSCAASGSIFDPYAMGWYRQAPGKEREFVAALSWSGGSTYYADSVKGRFTISRDNAKNTVYLQMNSLKPEDTAVYYCATDWGDPYGYDYWGQGTQVTVSS | low polyreactivity
QVQLVESGGGLVQAGGSLRLSCAASGSIFDPYAMGWYRQAPGKERELVAAISFSGGSTSYADSVKGRFTISRDNAKNTVYLQMNSLTPEATAVYYCAKRARFYSETDLKPYGFDYWGHGTQVTVSS | low polyreactivity
QVQLVESGGGLVQAGGSLRLSCAASGSIFDPYAMGWYRQAPGKERELVARISRSGGSTNYADSVKGRFTISRDNAKNTVYLQMNSLKPEDTAVYYCNTPSSREMDYWGQGTQVTVSS | low polyreactivity
QVQLVESGGGLVQAGGSLRLSCAASGSIFDQNAMGWYRQAPGKERELVAAITFSGVDTYYADSAKGRFTISRDNAKNTVYLQMNSLKPEDTAVYYCNADRGYNLVRRSQAVVEMDYWGQGTQVTVSS | low polyreactivity
QVQLVESGGGLVQAGGSLRLSCAASGSIFDRNAMGWYRQAPGIERELVAAITSRGGSTYYADSVKGRFTISRDNAKNTVYLQMNSLKPEDTAVYYCAARYSSRGTYPRRYDYWGQGTQVTVSS | high polyreactivity
QVQLVESGGGLVQAGGSLRLSCAASGSIFDRNAMGWYRQAPGKERELVAAITSGGSTYYADSVKGRFTISRDNAKNTVYLQMNSLKPEDTAVYYCNADTDPPVPLYYWGQGTQVTVSS | low polyreactivity

Sequence | polyreactivity (PSR sort gate)
QVQLVESGGGLVQAGGSLRLSCAASGSIFDRYALGWYRQAPGKERELVAAISTGGSTNYADSVKGRFTISRDNAKNTVYLQMNSLKPEDTAVYYCAAASPYHEYDYWGQGTQVTVSS | low polyreactivity
QVQLVESGGGLVQAGGSLRLSCAASGSIFDRYAMGWYRQAPGKERELVAAISRSGGSTYYADSVMGRFTISRDNAKNTVYLQMNSLKPEDTAVYYCAAYQHPGLRTSYEYWGQGTQVTVSS | low polyreactivity
QVQLVESGGGLVQAGGSLRLSCAASGSIFDRYAMGWYRQAPGKERELVAAISTGGSTNYADSVKGRFTISRDNAKNTVYLQMNSLKPEDTAVYYCAAERYWVFHGTISYKYDYWGQGTQVTVSS | low polyreactivity
QVQLVESGGGLVQAGGSLRLSCAASGSIFDSNAMGWYRQAPGKERELVAAITGSGSTNYADSVKGRFTISRDNAKNTVYLQMNSLKPEDTAVYYCNAQAPYTEFDYWGQGTQVTVSS | low polyreactivity
QVQLVESGGGLVQAGGSLRLSCAASGSIFDSNAMGWYRQAPGKERELVAAITGSGTSTYDADSVKGRFTISRDNAKNTVYLQMNSLKPEDTAVYYCAAAPEYLTDHDYWGQGTQVTVSS | low polyreactivity
QVQLVESGGGLVQAGGSLRLSCAASGSIFDSNAMGWYRQAPGKERELVAVITGSGGITYYADSVKGRFTISRDNAKNTVYLQMNRLKPEDTAVYYCYADYYLSEDGTWIYDYWGQGTQVTVSS | high polyreactivity
QVQLVESGGGLVQAGGSLRLSCAASGSIFDSYVMGWYRQAPGKERELVAAITYSGGSTYADSVMGRFTISRDNAKNTVYLQMNSVKPEDTAVYYCAAASYFYLYLLEDYWGQGTQVTVSS | low polyreactivity
QVQLVESGGGLVQAGGSLRLSCAASGSIFDTYAMGWYRQATGKERELVSTISWSGDSKYYADSVKGRFTISRDNAKNTVYLQINSLKPEDTAVYYCAADVGQVWDHEDYDYWGQGTQVTVSS | low polyreactivity
QVQLVESGGGLVQAGGSLRLSCAASGSIFDVNAMGWYRQATGKERELVAAISDSGGSTYYADSVKGRFTISRDNAKNTVYLQMNSLKPEDTAVYYSNADWSWYNYYDFDYWGHGTQVTVSS | low polyreactivity
QVQLVESGGGLVQAGGSLRLSCAASGSIFDVNSMGWYRQAPGKERELVAAISDSGGSTYYADSVKGRFTISRDNAKNTVYLQMNSLKPEDTAVYYCNADWSWYNYYDFDYLGQGTQVTVSS | low polyreactivity
QVQLVESGGGLVQAGGSLRLSCAASGSIFDVNTMGWYSQAPGKERELVAGITSRGGSTYYADSVKGRFTISRDNAKNTVYLQMNSLKPEDTAVYYCAKRAYGTALYRGYGYWGQGTQVTVSS | low polyreactivity
QVQLVESGGGLVQAGGSLRLSCAASGSIFDVYAMGWYRQAPGKERELVAAIDSGGSSTYYADSVKGRFTISRDNAKNTVYLQMNSLKPEDTAVYYCAARPYYSWNYDYWGQGTQVTVSS | low polyreactivity
QVQLVESGGGLVQAGGSLRLSCAASGSIFDVYAMGWYRQAPGKERELVAAITFDGGSTYYADSVKGRFTISRDNAKNTVYLQMNSLKPEDTAVYDCNAEFYFLWDWQSFDYWGQGTQVTVSS | high polyreactivity
QVQLVESGGGLVQAGGSLRLSCAASGSIFDVYTMGWYRQAPGKERELVAAISQSTGSTYYAASVKGRFTISRDNAKNTVYLQMNSLIPEDTAVYYCNAKFRFVTYKTPYVFWGQVTQVTVSS | low polyreactivity
QVQLVESGGGLVQAGGSLRLSCAASGSIFDWYAMGCYRQAPGKEGELVAAISSGDSTYYADSVKGRFTISRDNAKNTVYLQMNSLKPEDTAVYYCAAVTKLSGIRYNYWGQGTQVTVSS | low polyreactivity
QVQLVESGGGLVQAGGSLRLSCAASGSIFDYNAMGWNRQAPGKETELVAAITSTDSTYADSVKGRFTISRDNAKNTVYLQMNSLKPEDTAVYYCAAEDVIYYLTGQWREYDYWGQGTQVNVSS | low polyreactivity
